Assay results reported in PMC11686404.

Target: native BnFMO, flavin monooxygenase from Bacillus niacini (Bacillus niacini)
Assay: cryo-EM structure

“native BnFMO, flavin monooxygenase from Bacillus niacini (enzyme)” was tested, and the stoichiometry N was 3.
